Data published in article PMC10687025, “Endosomal Arl4A attenuates EGFR degradation by binding to the ESCRT-II component VPS36” (Nature Communications, 2023).

B1: untagged WT (pSG5) [not stated] / VPS36 precipitated with HA beads (Fig. 4c) [not stated] (parent)
chain 1: MGNGLSDQTSILSNLPSFQSFHIVILGLDCAGKTTVLYRLQFNEFVNTVPTKGFNTEKIKVTLGNSKTVTFHFWDVGGQEKLRPLWKSYTRCTDGIVFVVDSVDVERMEEAKTELHKITRISENQGVPVLIVANKQDLRNSLSLSEIEKLLAMGELSSSTPWHLQPTCAIIGDGLKEGLEKLHDMIIKRRKMLRQQKKKR
chain 2: MDRFVWTSGLLEINETLVIQQRGVRIYDGEEKIKFDAGTLLLSTHRLIWRDQKNHECCMAILLSQIVFIEEQAAGIGKSAKIVVHLHPAPPNKEPGPFQSSKNSYIKLSFKEHGQIEFYRRLSEEMTQRRWENMPVSQSLQTNRGPQPGRIRAVGIVGIERKLEEKRKETDKNISEAFEDLSKLMIKAKEMVELSKSIANKIKDKQGDITEDETIRFKSYLLSMGIANPVTRETYGSGTQYHMQLAKQLAGILQVPLEERGGIMSLTEVYCLVNRARGMELLSPEDLVNACKMLEALKLPLRLRVFDSGVMVIELQSHKEEEMVASALETVSEKGSLTSEEFAKLVGMSVLLAKERLLLAEKMGHLCRDDSVEGLRFYPNLFMTQS

Variants of: B1
Experiment: co-immunoprecipitation (HA beads) with densitometric quantification
Details: with VPS36 precipitated with HA beads (Fig. 4c); HeLa cell lysates; parent: 1; read off a plot

| Variant | ratio to parent |
| --- | --- |
| chain 1 Q79L | 1.4 |
| chain 1 T51N | 2.6 |
